Reference: publication PMC11964265
Where “and” joins values, the source holds several entries; their conditions need not be identical. Identical values can stand only once.

Legend:
[1] = biological target: Naegleria fowleri cystatin (recombinant, without signal presequence) (Naegleria fowleri (strain HB-1)); experiment: SEC; analytical size-exclusion chromatography, Superdex 200 Increase 10/300 GL, 20 mM Tris-HCl, 150 mM NaCl, pH 7.5; mass from calibration with Gel Filtration Standard (Bio-Rad)
[2] = biological target: Cathepsin L holoenzyme from human liver (human)
[3] = biological target: Recombinant human cathepsin K holoenzyme (human) (UniProt P43235)
Recombinant human cathepsin K holoenzyme (human), sequence (P43235 16-329): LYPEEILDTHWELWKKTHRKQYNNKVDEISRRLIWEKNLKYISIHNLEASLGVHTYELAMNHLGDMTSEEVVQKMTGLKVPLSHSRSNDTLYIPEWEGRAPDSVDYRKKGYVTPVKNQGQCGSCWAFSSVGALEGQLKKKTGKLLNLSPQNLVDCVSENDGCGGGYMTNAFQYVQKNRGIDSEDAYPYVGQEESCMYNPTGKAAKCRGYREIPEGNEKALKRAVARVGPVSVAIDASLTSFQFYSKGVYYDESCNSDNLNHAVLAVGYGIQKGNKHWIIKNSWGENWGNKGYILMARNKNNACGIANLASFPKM

Cathepsin L holoenzyme from human liver (human), sequence (P07711 18-333): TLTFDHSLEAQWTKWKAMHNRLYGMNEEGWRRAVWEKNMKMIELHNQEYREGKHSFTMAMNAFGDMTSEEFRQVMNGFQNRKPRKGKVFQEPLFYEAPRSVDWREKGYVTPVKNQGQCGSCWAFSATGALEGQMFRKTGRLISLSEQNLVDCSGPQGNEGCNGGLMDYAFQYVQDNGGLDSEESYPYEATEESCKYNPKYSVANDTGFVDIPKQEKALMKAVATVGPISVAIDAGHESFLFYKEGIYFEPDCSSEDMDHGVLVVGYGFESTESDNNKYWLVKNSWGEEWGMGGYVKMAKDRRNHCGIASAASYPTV

Substance: Naegleria fowleri cystatin (recombinant, without signal presequence) (natural protein)
- stoichiometry N [1]: 4 and 2
- IC50 of inhibition of peptidase activity (Z-Phe-Arg-AMC cleavage), 50 nM enzyme, 5 nM – 2 µM Nf cystatin, pH 5.5 [2]: 517 nM
- IC50 of inhibition of peptidase activity (Z-Phe-Arg-AMC cleavage), 50 nM enzyme, 5 nM – 2 µM Nf cystatin, pH 5.5 [3]: 31 nM
